Experimental data reported in US20220098269A1 (IMMATICS BIOTECHNOLOGIES, published 2022).

Each binder was assayed against T1, HLA-A*03:01 (human) (assay: UV-ligand exchange, anti-b2m ELISA; peptide exchange yield grade).
T1 construct: Peptide-receptive MHC class I monomer after UV cleavage of a UV-sensitive ligand
Description: (§1) Candidate peptides for T cell based therapies according to the present invention were further tested for their MHC binding capacity (affinity). The individual peptide-MHC complexes were produced by UV-ligand exchange, where a UV-sensitive peptide is cleaved upon UV-irradiation and exchanged with the peptide of interest as analyzed. Only peptide candidates that can effectively bind and stabilize the peptide-receptive MHC molecules prevent dissociation of the MHC complexes. To determine the yield of the exchange reaction, an ELISA was performed based on the detection of the light chain (β2m) of stabilized MHC complexes. The assay was performed as generally described in Rodenko et al. (Rodenko et al., 2006).
(§2) 96 well MAXISorp plates (NUNC) were coated over night with 2 μg/ml streptavidin in PBS at room temperature, washed 4× and blocked for 1h at 37° C. in 2% BSA containing blocking buffer. Refolded HLA-A*02:01/MLA-001 monomers served as standards, covering the range of 15-500 ng/ml. Peptide-MHC monomers of the UV-exchange reaction were diluted 100-fold in blocking buffer. Samples were incubated for 1 h at 37° C., washed four times, incubated with 2 μg/ml HRP conjugated anti-β2m for 1h at 37° C., washed again and detected with TMB solution that is stopped with […]. Absorption was measured at 450 nm. Candidate peptides that show a high exchange yield (preferably higher than 50%, most preferred higher than 75%) are generally preferred for a generation and production of antibodies or fragments thereof, and/or T cell receptors or fragments thereof, as they show sufficient avidity to the MHC molecules and prevent dissociation of the MHC complexes.

Binder	peptide exchange yield [%]
RLWDFTMNAK	50 to 75
IVRDLSCRK	50 to 75
KAYDQTHLY	≥ 75
HLYYDVTEK	50 to 75
NLYDWSASY	20 to 50
RLPAADFTRY	20 to 50

The binders below were run against T2, HLA-B*44:05 (human) in the same assay as above.
T2 construct: Peptide-receptive MHC class I monomer after UV cleavage of a UV-sensitive ligand
Description: as §1, §2

Binder	peptide exchange yield [%]
AESLAVHDI	50 to 75
AQDTTYLWW	≥ 75
DETHTLQF	≥ 75
AERDLDVTI	≥ 75
TDFTKIASF	≥ 75
KENQDHSYSL	≥ 75
DESKYTWSW	≥ 75
GEYRCQTDL	≥ 75
LENMYDLTF	≥ 75
DETIWYVRF	≥ 75
DETAAYKIM	50 to 75
AEFFDYTVRTL	≥ 75
TEGDFTKEASTY	50 to 75
DEAVRDITW	≥ 75
KPREEQYDSTY	≥ 75
KEVDDTLLVNEL	≥ 75
QEVDISLHY	≥ 75
RDATASLW	≥ 75

Each binder was assayed against T3, HLA-A*24:02 (human) in the same assay as above.
T3 construct: Peptide-receptive MHC class I monomer after UV cleavage of a UV-sensitive ligand
Description: as §1, §2

Binder	peptide exchange yield [%]
VYIDDSVEL	≥ 75
RYVNDYTNSF	≥ 75
IFVPTDRSL	20 to 50
EYQDFSTLF	≥ 75
AFDKTIVKL	20 to 50
IYPDGTLLI	≥ 75
HLFYDVTVF	20 to 50
RQDESYLNF	20 to 50
VYVDTTELAL	≥ 75
VYLDASKVPGF	≥ 75

These binders were tested against T4, HLA-A*02:01 (human) in the same assay as above.
T4 construct: Peptide-receptive MHC class I monomer after UV cleavage of a UV-sensitive ligand
Description: as §1, §2

Binder	binding result
SLIDITHGF	binds

What follows are binders tested against T5, HLA-B*07:02 (human) in the same assay as above.
T5 construct: Peptide-receptive MHC class I monomer after UV cleavage of a UV-sensitive ligand
Description: as §1, §2

Binder	peptide exchange yield [%]
VPRNQDESV	≥ 75
HPFGYDLTL	≥ 75
HPDLTSMTF	≥ 75
NPADISVAL	≥ 75
LPFFTDKTLSF	≥ 75
APFKDVTEY	50 to 75
SPKIFDSSW	50 to 75
GEPTSDITLL	50 to 75
FPYYLKIDY	50 to 75

These binders were tested against T6, HLA-B*08:01 (human) in the same assay as above.
T6 construct: Peptide-receptive MHC class I monomer after UV cleavage of a UV-sensitive ligand
Description: as §1, §2

Binder	binding result
DVSDKITFM	binds
DILDRTGHQL	binds
